Numbering of substitutions follows the chain as printed. Numbers in names are those of the source.

T1: human CD73 on CD73-expressing human tumor cells (MDA-MB-231, NCI-H292) (human, UniProt P21589 27-549)
T1 construct: whole, on cells; The cell line of each result is named under assay or readout; also called cell surface CD73; surface CD73
T1 sequence (looked up): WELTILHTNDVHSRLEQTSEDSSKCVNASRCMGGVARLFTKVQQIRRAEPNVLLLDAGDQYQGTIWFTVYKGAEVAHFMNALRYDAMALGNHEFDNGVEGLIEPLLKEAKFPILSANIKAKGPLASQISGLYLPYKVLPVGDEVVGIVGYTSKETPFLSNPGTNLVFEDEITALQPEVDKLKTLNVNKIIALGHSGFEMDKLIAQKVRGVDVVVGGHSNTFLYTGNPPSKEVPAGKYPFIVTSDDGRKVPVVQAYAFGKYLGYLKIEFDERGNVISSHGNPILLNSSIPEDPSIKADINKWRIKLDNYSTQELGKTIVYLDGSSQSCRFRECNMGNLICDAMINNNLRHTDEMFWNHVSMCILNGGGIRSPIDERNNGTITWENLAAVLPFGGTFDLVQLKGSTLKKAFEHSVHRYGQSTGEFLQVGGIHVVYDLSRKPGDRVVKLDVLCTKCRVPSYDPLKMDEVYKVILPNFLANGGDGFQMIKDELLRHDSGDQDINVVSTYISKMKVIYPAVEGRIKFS

B1: N1#9 (antibody, human IgG2, V domains shown)
VH: EVQLVESGGGLVQPGRSLRLSCAASGFTFDDYAMHWVRLAPGKGLEWVSGISWNSGSIGYADSVRGRFTISRDNAKNSLYLQMNSLRAEDTALYYCAKDMGWSLLKTNYYGMDVWGQGTTVTVSS
VL: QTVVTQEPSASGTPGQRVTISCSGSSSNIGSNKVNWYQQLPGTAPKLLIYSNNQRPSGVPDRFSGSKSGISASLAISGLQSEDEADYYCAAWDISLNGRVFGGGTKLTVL
notes: also called N1 variant N1#9
B2: N1#2 (antibody, human IgG2, V domains shown)
VH: B1 VH with F27L, L39Q, G56N, S63P, S103E, N108S
VL: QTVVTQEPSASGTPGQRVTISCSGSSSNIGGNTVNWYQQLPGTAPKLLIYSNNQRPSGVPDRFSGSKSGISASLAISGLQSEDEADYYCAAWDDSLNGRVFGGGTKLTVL
notes: also called N1 variant N1#2
B3: N4#6 (antibody, human IgG2, V domains shown)
VH: QVQLVQSGAEVKKSGSSVKVSCKASGGTFSSYAISWVRQAPGQGLEWMGGIIPIFGTTNYAQKFQGRVTITADESTSIAYMELSSLRSEDTAVYYCASDGAVAAYDAFLIWGQGTMVTVSS
VL: QAVLTQPSSVSGAPGQRVTISCTGTSSNIGAGYDIHWYQQLPGTAPKLLMYRFTRRPSGVPDRFSGSKSGTSASLTITGLQVEDEADYYCQSYDSGQRGWVFGGGTKLTVL
notes: also called N4 variant N4#6
B4: N4#5 (antibody, human IgG2, V domains shown)
VH: B3 VH with S35A, T58V, L109S
VL: B3 VL with Q97L, W100L
notes: also called N4 variant N4#5
B5: N4#4-3 (antibody, human IgG2, V domains shown)
VH: B3 VH with S30A, T58V, L109D
VL: B3 VL with A31Q, Q97L, V101A
notes: also called N4 variant N4#4-3
B6: N4#6-4 (antibody, human IgG2, V domains shown)
VH: B3 VH with G50M, T58A
VL: B3 VL with Y33F, T54S
notes: also called N4 variant N4#6-4
B7: N4#6-5 (antibody, human IgG2, V domains shown)
VH: B3 VH with G50R, V93M
VL: B3 VL with A31T
notes: also called N4 variant N4#6-5
B8: N4#6-2 (antibody, human IgG2, V domains shown)
VH: B3 VH with G50R
VL: B3 VL with A31H, Q40H, T54V
notes: also called N4 variant N4#6-2
B9: N4#6-3 (antibody, human IgG2, V domains shown)
VH: B3 VH with T58A
VL: B3 VL with A31L, Q40H, T54D
notes: also called N4 variant N4#6-3
B10: N1-tmtIgG1 (antibody)
heavy: EVQLVESGGGLVQPGRSLRLSCAASGFTFDDYAMHWVRQAPGKGLEWVSGISWNSGSIGYADSVRGRFTISRDNAKNSLYLQMNSLRAEDTALYYCAKDMGWELLKTYYYGMDVWGQGTTVTVSSASTKGPSVFPLAPSSSTSGGTAALGCLVKDYFPEPVTVSWNSGALTSGVHTFPAVLQSSGLYSLSSVVTVPSSSLGTQTYICNVNHKPSNTKVDKRVEPKSCDKTHTCPPCPAPEFEGGPSVFLFPPKPKDTLMISRTPEVTCVVVDVSHEDPEVKFNWYVDGVEVHNAKTKPREEQYNSTYRVVSVLTVLHQDWLNGKEYKCKVSNKALPASIEKTISKAKGQPREPQVYTLPPSREEMTKNQVSLTCLVKGFYPSDIAVEWESNGQPENNYKTTPPVLDSDGSFFLYSKLTVDKSRWQQGNVFSCSVMHEALHNHYTQKSLSLSPGK
light: not shown
notes: Heavy chain assembled from the VH entry and the constant region entry named tmtIgG1; also called lead N1; N1 clone, tmtIgG1 isotype
B11: N1-wtIgG2 (antibody)
heavy: EVQLVESGGGLVQPGRSLRLSCAASGFTFDDYAMHWVRQAPGKGLEWVSGISWNSGSIGYADSVRGRFTISRDNAKNSLYLQMNSLRAEDTALYYCAKDMGWELLKTYYYGMDVWGQGTTVTVSSASTKGPSVFPLAPCSRSTSESTAALGCLVKDYFPEPVTVSWNSGALTSGVHTFPAVLQSSGLYSLSSVVTVPSSNFGTQTYTCNVDHKPSNTKVDKTVERKCCVECPPCPAPPVAGPSVFLFPPKPKDTLMISRTPEVTCVVVDVSHEDPEVQFNWYVDGVEVHNAKTKPREEQFNSTFRVVSVLTVVHQDWLNGKEYKCKVSNKGLPAPIEKTISKTKGQPREPQVYTLPPSREEMTKNQVSLTCLVKGFYPSDIAVEWESNGQPENNYKTTPPMLDSDGSFFLYSKLTVDKSRWQQGNVFSCSVMHEALHNHYTQKSLSLSPGK
light: not shown
notes: Heavy chain assembled from VH and the named constant region entry; also called N1 clone, wtIgG2 isotype
B12: N1-mtIgG2 (antibody)
heavy: B11 heavy with C227S
light: not shown
notes: Heavy chain assembled from VH and the named constant region entry; also called N1 clone, mtIgG2 isotype; C219S mutant IgG2
B13: N2-tmtIgG1 (antibody)
heavy: QVQLQQWGAGLLKPSETLSLTCAVYGGSFSGYYWSWIRQPPGKGLEWIGEINHSGSTNYNPSLKSRVTISVDTSKNQFSLKLSSVTAADTAVYYCARGRYDFWSGYYAYFDYWGQGTLVTVSSASTKGPSVFPLAPSSSTSGGTAALGCLVKDYFPEPVTVSWNSGALTSGVHTFPAVLQSSGLYSLSSVVTVPSSSLGTQTYICNVNHKPSNTKVDKRVEPKSCDKTHTCPPCPAPEFEGGPSVFLFPPKPKDTLMISRTPEVTCVVVDVSHEDPEVKFNWYVDGVEVHNAKTKPREEQYNSTYRVVSVLTVLHQDWLNGKEYKCKVSNKALPASIEKTISKAKGQPREPQVYTLPPSREEMTKNQVSLTCLVKGFYPSDIAVEWESNGQPENNYKTTPPVLDSDGSFFLYSKLTVDKSRWQQGNVFSCSVMHEALHNHYTQKSLSLSPGK
light: LNFMLTQPHSVSESPGKTVTISCTCSGGRIANNYVQWYQQRPGTSPTTVIYEDNLRPSGVPDRFSGSIDRASNSASLTISDLRTEDEAHYYCQSYDSNDGVAFGGGTKLTVLGQPKAAPSVTLFPPSSEELQANKATLVCLISDFYPGAVTVAWKADSSPVKAGVETTTPSKQSNNKYAASSYLSLTPEQWKSHRSYSCQVTHGGSTVEKTVALTECS
notes: Heavy chain assembled from the VH entry and the constant region entry named tmtIgG1; also called lead N2; N2 clone, tmtIgG1 isotype
B14: N2-wtIgG2 (antibody)
heavy: QVQLQQWGAGLLKPSETLSLTCAVYGGSFSGYYWSWIRQPPGKGLEWIGEINHSGSTNYNPSLKSRVTISVDTSKNQFSLKLSSVTAADTAVYYCARGRYDFWSGYYAYFDYWGQGTLVTVSSASTKGPSVFPLAPCSRSTSESTAALGCLVKDYFPEPVTVSWNSGALTSGVHTFPAVLQSSGLYSLSSVVTVPSSNFGTQTYTCNVDHKPSNTKVDKTVERKCCVECPPCPAPPVAGPSVFLFPPKPKDTLMISRTPEVTCVVVDVSHEDPEVQFNWYVDGVEVHNAKTKPREEQFNSTFRVVSVLTVVHQDWLNGKEYKCKVSNKGLPAPIEKTISKTKGQPREPQVYTLPPSREEMTKNQVSLTCLVKGFYPSDIAVEWESNGQPENNYKTTPPMLDSDGSFFLYSKLTVDKSRWQQGNVFSCSVMHEALHNHYTQKSLSLSPGK
light: B13 light
notes: also called N2 clone, wtIgG2 isotype
B15: N2-mtIgG2 (antibody)
heavy: B14 heavy with C225S
light: B13 light
notes: also called N2 clone, mtIgG2 isotype; C219S mutant IgG2
B16: N4-tmtIgG1 (antibody)
heavy: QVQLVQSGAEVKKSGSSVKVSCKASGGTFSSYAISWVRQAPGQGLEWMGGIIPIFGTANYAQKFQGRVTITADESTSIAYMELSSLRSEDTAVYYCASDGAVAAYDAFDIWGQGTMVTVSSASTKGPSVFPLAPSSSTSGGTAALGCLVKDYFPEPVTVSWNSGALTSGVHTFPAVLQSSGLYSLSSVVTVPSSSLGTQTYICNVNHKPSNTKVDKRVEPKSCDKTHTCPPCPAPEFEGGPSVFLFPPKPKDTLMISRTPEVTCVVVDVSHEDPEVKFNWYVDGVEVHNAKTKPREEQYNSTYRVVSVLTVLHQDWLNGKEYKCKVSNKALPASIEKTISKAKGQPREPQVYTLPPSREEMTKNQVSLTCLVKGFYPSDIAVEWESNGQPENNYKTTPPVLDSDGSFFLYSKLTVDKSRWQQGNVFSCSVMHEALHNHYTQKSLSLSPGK
light: QAVLTQPSSVSGAPGQRVTISCTGTSSNIGAGYDIHWYQQLPGTAPKLLMYRFTRRPSGVPDRFSGSKSGTSASLTITGLQVEDEADYYCQSYDSGLRGWVFGGGTKLAVLGQPKAAPSVTLFPPSSEELQANKATLVCLISDFYPGAVTVAWKADSSPVKAGVETTTPSKQSNSKYAASSYLSLTPEQWKSHRSYSCQVTHEGSTVEKTVALTECS
notes: Heavy chain assembled from the VH entry and the constant region entry named tmtIgG1; also called lead N4; N4 clone, tmtIgG1 isotype

The target in one experiment is T1, human CD73 on CD73-expressing human …. The experiment is described as follows: flow cytometry on MDA-MB-231 and NCI-H292 cells (FIGS. 11A, 11B). How it is done: Whole cell binding ability of anti-CD73 antibodies were tested by incubating the MDA-MB-231 or NCI-H292 cells with the serial-diluted antibodies in FACS buffer (PBS with 2% FBS) at 4° C. for 30 minutes. Cells were washed with FACS buffer and the binding was detected with FITC-labeled goat anti-human IgG (H+L) antibodies (or PE-labeled goat anti-human IgG Fcγ) at 4° C. for another 30 minutes. The binding of antibodies to cell surface was measured by the mean fluorescent intensity (MFI) of staining. Flow cytometric analyses were performed using the Cytomics FC500 or CytoFLEX flow cytometry (Beckman Coulter Inc.). FIGS. 2B and 2C show selected anti-CD73 antibodies binding to CD73-expressing human tumor cells MDA-MB-231 (human breast adenocarcinoma) cells (FIG. 2B), and NCI-H292 (human mucoepidermoid pulmonary carcinoma) cells (FIG. 2C).
FIGS. 11A-11B also show CD73 binding of N1 and N4 variants. Selected variants were tested the binding to CD73-expressing MDA-MB-231 (FIG. 11A) and NCI-H292 (FIG. 11B) cells by flow cytometry. HLX01 (anti-CD20) was used as the negative control. […] N4 variants have better CD73 binding ability than N1 variants in these two cell lines. The rank of the whole cell binding ability is: N4#5, N4#6-4, N4#6-5>N4#6-2>N4#4-3, N4#6, N4#6-3, N1#9>N1#2.
A general note: In flow cytometry, cells or beads pass a laser one at a time.
As to B1, the binding result was “binds”.

For the molecule B2, the binding result was “binds”.

B3: the binding result is “binds”.

Consider B4, for which the binding result was “binds”.

For B5, the binding result is “binds”.

Consider B6, for which the binding result is listed as “binds”.

As for B7, the binding result is given as “binds”.

For B8, the binding result is “binds”.

As to B9, the binding result was “binds”.

The next experiment has the same target. In words: flow cytometry on MDA-MB-231 cells, biotin-labeled antibody, streptavidin-FITC (FIG. 5A). How it is done:
(§1) The binding of anti-CD73 antibodies to cell surface CD73 were tested by incubating the MDA-MB-231 cells with the serially diluted biotin-labeled anti-CD73 antibodies in FACS buffer (PBS with 2% FBS) at 4° C. for 30 minutes. The cells were washed with FACS buffer and the binding was detected with streptavidin-FITC at 4° C. for 30 minutes. Flow cytometric analyses were performed using the Cytomics FC500 (Beckman Coulter Inc.).
(§2) The variable sequences of N1, N2 and N4 were cloned into human wild-type or C219S mutant IgG2 Fc backbone. Different IgG isotypes of N1 (FIG. 5A), N2 (FIG. 5B), N4 (FIG. 5C) were tested the binding to CD73-expressing human MDA-MB-231 cells by flow cytometry. Anti-CD73 ref-1 antibody and HLX01 (anti-CD20) were used as the positive and negative control respectively.
Turning to B10, the binding result is recorded as “binds”.

Regarding B11, the binding result is reported as “binds”.

As for B12, the binding result is “binds”.

The next experiment has the same target. The experiment is described as follows: flow cytometry on MDA-MB-231 cells, biotin-labeled antibody, streptavidin-FITC (FIG. 5B). On the procedure: as §1, §2
On to B13, for which the binding result is recorded as “binds”.

As to B14, the binding result was “binds”.

Regarding B15, the binding result is on record as “binds”.

Another experiment has the same target. The experiment is described as follows: flow cytometry on MDA-MB-231 cells, biotin-labeled antibody, streptavidin-FITC (FIG. 5C). How it is done:
as §1, §2
As for B16, the binding result is given as “binds”.

The record behind these values is US20220162334A1 (SHANGHAI HENLIUS BIOTECH, published 2022).
